Measured values published in patent WO2012172495A1 (dated 2012).

Legend:
[1] = target: T1, purified recombinant hTEM8(ED)-Fc fusion protein, biotinylated (human, UniProt Q9H6X2 33-321, biotinylated (site not stated)); assay: ELISA, Fab on biotinylated human TEM8-Fc
T1 construct: also called human TEM8-Fc
T1 sequence: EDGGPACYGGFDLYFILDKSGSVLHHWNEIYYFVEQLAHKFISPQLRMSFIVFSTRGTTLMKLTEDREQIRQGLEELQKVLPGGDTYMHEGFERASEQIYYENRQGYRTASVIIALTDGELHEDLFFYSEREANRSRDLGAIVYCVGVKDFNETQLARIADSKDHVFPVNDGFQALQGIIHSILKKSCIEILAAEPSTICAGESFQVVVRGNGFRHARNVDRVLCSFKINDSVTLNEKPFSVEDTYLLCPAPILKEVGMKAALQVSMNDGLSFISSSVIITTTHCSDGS

[2] = target: T2, human TEM8 on transfected HEK-293 cells (293/Flag-hTEM8) (human, UniProt Q9H6X2 33-564); assay: immunofluorescence microscopy, 10 ug/ml Fab on HEK-293 cells transfected with human TEM8, against untransfected HEK-293
T2 construct: also called HEK-293 transfected with human TEM8

B1: L5 Fab fragment (Anti-human TEM8_cl4) (Fab, V domains shown)
VH: QVQLVESGGGLVQPGGSLRLSCAASGFTFNSYGLSWVRQAPGKGLEWVSNISSNGSYTYYADSVKGRFTISRDNSKNTLYLQMNSLRAEDTAVYYCARAGYGLFDVWGQGTLVTVSS
VL: DIELTQPPSVSVAPGQTARISCSGDKLREYYVHWYQQKPGQAPVLVIYGDNKRPSGIPERFSGSNSGNTATLTISGTQAEDEADYYCSSWAGSRSGTVFGGGTKLTVL
notes: Tested as a purified Fab fragment; The light chain is lambda
B1: binds [1]; binds [2].
